Reference: US20030077800A1 (HORMOS MEDICAL, published 2003)

Key:
[1] = molecular target: rat androgen receptor expressed from pSG-rAR (rat) (UniProt P15207); assay: cell-based or functional assay
[2] = molecular target: T1, LexA-HLBD (amino acids 624-919 of AR) (UniProt P10275 624-919); assay: cell-based or functional assay
T1 sequence (looked up): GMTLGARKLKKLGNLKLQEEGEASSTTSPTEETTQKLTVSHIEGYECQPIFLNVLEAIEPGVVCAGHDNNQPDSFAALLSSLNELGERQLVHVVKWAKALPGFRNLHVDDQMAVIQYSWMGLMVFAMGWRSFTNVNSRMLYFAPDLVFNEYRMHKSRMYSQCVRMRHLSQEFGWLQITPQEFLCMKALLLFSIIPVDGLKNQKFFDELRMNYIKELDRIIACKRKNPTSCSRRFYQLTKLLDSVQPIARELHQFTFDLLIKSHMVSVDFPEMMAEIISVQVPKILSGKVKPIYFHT

[3] = molecular target: T2, LexA-AR ZFR (AR amino acids 554-644) (human, UniProt P10275 554-644); assay: cell-based or functional assay
T2 sequence (looked up): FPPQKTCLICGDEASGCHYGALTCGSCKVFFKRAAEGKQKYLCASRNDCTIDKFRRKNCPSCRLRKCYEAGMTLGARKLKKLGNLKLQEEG

[4] = molecular target: T3, rat AR (amino acids 3-902) fused to the DBD of Gal4 (Gal4-AR) (rat, UniProt P04386 1-147; P15207 3-902); assay: mammalian two-hybrid in CV-1 cells, pG5LUC reporter
T3 construct: domain: DBD;range 3-902; Mammalian two-hybrid bait in CV-1 cells; also called Gal-AR

Chain of rat androgen receptor expressed from pSG-rAR (rat) (P15207 whole entry S389L, the tested form may be a part): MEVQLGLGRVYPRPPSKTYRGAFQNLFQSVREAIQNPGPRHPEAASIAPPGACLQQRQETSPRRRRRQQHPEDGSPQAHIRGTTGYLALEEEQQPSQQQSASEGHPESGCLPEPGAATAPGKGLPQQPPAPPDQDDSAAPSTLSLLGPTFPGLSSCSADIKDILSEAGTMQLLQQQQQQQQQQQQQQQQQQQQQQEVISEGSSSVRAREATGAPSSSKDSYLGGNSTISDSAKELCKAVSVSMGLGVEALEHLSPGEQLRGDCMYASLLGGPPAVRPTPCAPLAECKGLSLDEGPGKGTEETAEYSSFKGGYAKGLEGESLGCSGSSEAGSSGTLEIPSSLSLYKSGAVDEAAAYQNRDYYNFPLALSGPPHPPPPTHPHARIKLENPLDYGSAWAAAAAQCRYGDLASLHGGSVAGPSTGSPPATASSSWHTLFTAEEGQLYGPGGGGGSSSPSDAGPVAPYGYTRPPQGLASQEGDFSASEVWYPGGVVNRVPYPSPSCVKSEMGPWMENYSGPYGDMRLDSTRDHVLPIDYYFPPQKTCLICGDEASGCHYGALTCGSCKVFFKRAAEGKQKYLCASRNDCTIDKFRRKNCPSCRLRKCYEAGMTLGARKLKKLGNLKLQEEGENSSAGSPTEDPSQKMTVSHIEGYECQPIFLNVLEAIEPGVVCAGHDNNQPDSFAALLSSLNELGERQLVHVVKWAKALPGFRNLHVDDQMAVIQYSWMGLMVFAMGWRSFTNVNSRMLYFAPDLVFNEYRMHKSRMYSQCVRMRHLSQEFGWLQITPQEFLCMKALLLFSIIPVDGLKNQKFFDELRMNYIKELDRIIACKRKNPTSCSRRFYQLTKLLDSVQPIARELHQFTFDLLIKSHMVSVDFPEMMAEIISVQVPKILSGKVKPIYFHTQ

FLAG-tagged ARIP4 (pFLAG-ARIP4) (from UniProt Q99NG0 1-1467)
AR activity on the probasin promoter (pPB(-285/+32)-LUC, COS-1 cells) (% of that of AR alone) [1]: 50 to 60
transcriptional activity of AR on a minimal promoter (ARE4-tk-LUC, COS-1 cells) [1]: 3 fold

B1: VP16 AD fused to ARIP4 (amino acids 86-227) (VP16 AD-ARIP4 ID) (other)
chain: RHQGKILASEDPKKKRAQKPSHMRRNIRKLLREDQLEPVTKAAQQEELERRKRLEQQRKEYAAPIPTVPLEFLPEEIVLRASDGPQLPPRVLAQEVICLDSSSGSEDEKSSRDEVIELSSGEEDTLHIVDSSESVSEEDEEE
reporter gene activity (beta-galactosidase, yeast two-hybrid, with androgen) [2]: 4 fold
reporter gene activity (beta-galactosidase, yeast two-hybrid) [3]: ~100 fold

B2: VP16-ODC fusion protein (human ornithine decarboxylase fused to VP16 AD) (other)
chain: MNNFGNEEFDCHFLDEGFTAKDILDQKINEVSSSDDKDAFYVADLGDILKKHLRWLKALPRVTPFYAVKCNDSKAIVKTLAATGTGFDCASKTEIQLVQSLGVPPERIIYANPCKQVSQIKYAANNGVQMMTFDSEVELMKVARAHPKAKLVLRIATDDSKAVCRLSVKFGATLRTSRLLLERAKELNIDVVGVSFHVGSGCTDPETFVQAISDARCVFDMGAEVGFSMYLLDIGGGFPGSEDVKLKFEEITGVINPALDKYFPSDSGVRIIAEPGRYYVASAFTLAVNIIAKKIVLKEQTGSDDEDESSEQTFMYYVNDGVYGSFNCILYDHAHVKPLLQKRPKPDEKYYSSSIWGPTCDGLDRIVERCDLPEMHVGDWMLFENMGAYTVAAASTFNGFQRPTIYYVMSGPAWQLMQQFQNPDFPPEVEEQDASTLPVSCAWESGMKRHRAACASASINV
notes: Negative control in the mammalian two-hybrid assay; also called human ODC
binding result [4]: no binding
